Assay results reported in PMC3963902 (PLoS ONE, 2014).

Columns and labels:
[1] = target: the molecule itself; assay: crystal structure; His-tagged Se-Met labelled LpEst1; 1 M sodium malonate, 0.5% (v/v) Jeffamine ED-2001, 100 mM HEPES pH 7.0, 5 mM DTT; space group I4, four molecules in the asymmetric unit; 2.05 A
[2] = target: the molecule itself; assay: SEC; analytical gel filtration on Superdex 200 10/300 GL Tricorn; 20 mM Tris-HCl pH 8.0, 0.1 M NaCl, 5 mM DTT, 0.04% sodium azide; size from Kav against standards
[3] = target: the molecule itself; assay: AUC; sedimentation equilibrium at 12,000 and 18,000 rpm; Gln189Glu mutant 10 uM in McIlvaine buffer pH 5.0 (Na2PO4, citric acid); fit to an ideal single species

B1: His-tagged, selenomethionine (Se-Met) labelled LpEst1 (enzyme, Lactobacillus plantarum WCFS1, UniProt Q88Y25 1-337, looked up)
chain: MPTINSIQTTVNGVVKIVKPFNNDIAGEQFDPHVLQTLTAFKQPAILENDLAALRSGSLTPAIADPVGDAVTVQSRNITALNRTVSVEWLTPQNVINHTVLVYFHGGAFYGGVPGNNTVLLKLVAAKSHCEILNVDYSLAPEAPAPAGILDGLAIFQYLEQRDAETMITVAGDSAGANVIMAATNLNQQLGSNRINQQLLLYPVTAPNADHAGPLWDLAAFPIIDSQRAILTNYHDLFRQLDSIMTDYYVPENFDSHSPLISPLHQENFTMTPPTTIMVGEFDPFRPQAWAYAQRLAAADTATTFIQYQGLNHAFAPLVDQYWQSQDVAQVMAAALI
modifications: selenomethionine (Se-Met labelled)
notes: carboxylesterase LpEst1, Lactobacillus plantarum WCFS1, UniProtKB/Swiss-Prot Q88Y25; 337 residues; Methionines replaced by selenomethionine; incorporation checked by mass spectrometry; also called Se-Met LpEst1; Se-Met labelled LpEst1 esterase
binding result [1]: binds

B2: carboxylesterase LpEst1 from Lactobacillus plantarum WCFS1 (wild type, native) (enzyme, UniProt Q88Y25 1-337, looked up)
chain: MPTINSIQTTVNGVVKIVKPFNNDIAGEQFDPHVLQTLTAFKQPAILENDLAALRSGSLTPAIADPVGDAVTVQSRNITALNRTVSVEWLTPQNVINHTVLVYFHGGAFYGGVPGNNTVLLKLVAAKSHCEILNVDYSLAPEAPAPAGILDGLAIFQYLEQRDAETMITVAGDSAGANVIMAATNLNQQLGSNRINQQLLLYPVTAPNADHAGPLWDLAAFPIIDSQRAILTNYHDLFRQLDSIMTDYYVPENFDSHSPLISPLHQENFTMTPPTTIMVGEFDPFRPQAWAYAQRLAAADTATTFIQYQGLNHAFAPLVDQYWQSQDVAQVMAAALI
notes: carboxylesterase LpEst1, Lactobacillus plantarum WCFS1, UniProtKB/Swiss-Prot Q88Y25; 337 residues, about 36.7 kDa; complete protein molecules in the crystal model; The crystals were of His-tagged protein; also called native LpEst1; wild-type protein; source: recombinant, from the expression vector pURI3-TEV-LpEst1
stoichiometry N [2]: 2

B3: LpEst1 Gln189Glu mutant (enzyme, Lactobacillus plantarum WCFS1, UniProt Q88Y25 1-337, looked up)
chain: MPTINSIQTTVNGVVKIVKPFNNDIAGEQFDPHVLQTLTAFKQPAILENDLAALRSGSLTPAIADPVGDAVTVQSRNITALNRTVSVEWLTPQNVINHTVLVYFHGGAFYGGVPGNNTVLLKLVAAKSHCEILNVDYSLAPEAPAPAGILDGLAIFQYLEQRDAETMITVAGDSAGANVIMAATNLNQELGSNRINQQLLLYPVTAPNADHAGPLWDLAAFPIIDSQRAILTNYHDLFRQLDSIMTDYYVPENFDSHSPLISPLHQENFTMTPPTTIMVGEFDPFRPQAWAYAQRLAAADTATTFIQYQGLNHAFAPLVDQYWQSQDVAQVMAAALI
notes: carboxylesterase LpEst1, Lactobacillus plantarum WCFS1, UniProtKB/Swiss-Prot Q88Y25; 337 residues; single point mutant Gln189Glu; Made from the wild-type vector with the mutagenic primers printed in the methods; source: recombinant, point mutant of pURI3-TEV-LpEst1; purified (IMAC on a His-Trap FF column plus size exclusion chromatography, last step in McIlvaine buffer pH 5.0)
stoichiometry N [3]: 2
